Test results reported in article PMC8147241, “Trimerization of the N-Terminal Tail of Zika Virus NS4A Protein: A Potential In Vitro Antiviral Screening Assay” (Membranes, 2021).

How the values were obtained:
[1] = molecular target: ZIKV NS4A N-terminal peptide (4–58) (Zika virus (strain MR-766)); assay: static light scattering; Debye plot of KC/Rθ against protein concentration, Zetasizer Nano-ZS, 25 °C; aqueous solution without detergents or liposomes; n = 5 independent samples per concentration
[2] = molecular target: the molecule itself; assay: SEC; Superdex 200 Increase 10/300 GL, 20 mM Tris-HCl, 300 mM NaCl, pH 8, with 4 mM n-decyl-β-D-maltoside

“ZIKV NS4A N-terminal peptide (4–58) (domain or fragment)” gave a stoichiometry N [1] of 3.

B1: full-length ZIKV NS4A protein (1–127) (natural protein)
chain: GAALGVMEALGTLPGHMTERFQEAIDNLAVLMRAETGSRPYKAAAAQLPETLETIMLLGLLGTVSLGIFFVLMRNKGIGKMGFGMVTLGASAWLMWLSEIEPARIACVLIVVFLLLVVLIPEPEKQR
notes: Zika virus NS4A protein, strain MR-766, full length, residues 1-127 of NS4A; numbers count on: the mature NS4A protein (127 residues); Vector pNIC28-Bsa4; a TEV protease cleavage site stands between the His6 tag and the protein; No cleavage is described; also called full-length NS4A; source: E. coli BL21 (DE3) Rosetta T1R, purified (Ni-charged IMAC and SEC in 4 mM n-decyl-β-D-maltoside)
B1: binds [2].
